Assay results: the DeepSol protein solubility set

assay: soluble on expression in E. coli; label from the status in PepcDB or PDB records

Row | Sequence | soluble on expression in E. coli
1 | MGSDKIHHHHHHMHHSHHLEIYEKLREKLDKAPVGLPKTVSGVEKEILSVLFDEEEAKIAVHMPFIRFTAEQLAERTGKSLEYVEKILNEMAKKGTVWKGEKDGKTYYRLFPVIVGFAEMPFLAGPGRDARQEKLAPLWAKYRKEGFLDELGDREHAILRALPEKSTISKQSVILPYEDAEKLVRDRDYHAVGYCPCRIMARLIGEGCRHSLEVCLHFGSLGKYMVEHGYARRITADEAVEILRKSNREGLVHVTERSKGPISTICNCCSDCCAFFRAIHEAGHPKTIAHSSYVASVDSSKCIACGICMLRCPMKAVKAKINREPANVEAEKCLGCGVCVPTCPVEAIELVEREELQEWPDHLTYYQELLADRGKDPAGLF | not soluble
2 | MGSDKIHHHHHHMHHVVGVRFKKAGKIYYFSPGDLDIPRGESVIVETSRGVEYGNVVIEKKTVGDNDVVLPLKQVIRVATEKDKLAVQENKEAAKKAYDVCVQKIMEHQLDMKLVDVEYTFDRNKVLFYFTADGRIDFRELVKDLASVFRTRIELRQIGVRDEAKMLGGIGPCGRILCCSSFLGDFEPVSIKMAKDQNLSLNPAKISGLCGRLMCCLKYENDMYESAKQELPDLGETIDTPHGKGKVVGLNMLERLVQVHLFEGERVLEFSLEELLERGAVSAEATE | not soluble
3 | MGSDKIHHHHHHMHNKFYRGRFAVAPMLDWTTRHCRYFHRQFSQQALLYTEMITAPAILHAKYDLLEYDPAEQPVALQLGGSDPTQLANCAKLVQARGYTEINLNVGCPSDRVQNGMFGACLMANADLVADCIKAMQDVVDIPVTIKHRIGIDTLDSYAFLCDFIDKIQPYSQDFIVHARKAWLSGLSPKENREIPPLDYERVYQLKRDFPQLNISINGGIKTIDEIKQHLTKVDGVMVGREAYQNPALLGEIDQQLFDQNQPLITARIAVENMLPYIEQQLSKGVYLNHIVRHMLGAFQNCKGARQWRRHLSENACKQGAGIEVVEQALRFVTE | not soluble
4 | MGSDKIHHHHHHMHQTLATSRKTSNACNVLALCTRDNPAILTIAHRGFWTATAENSLASVRAAVAAGVEMIEIDTQATADGRLVVIHDETLDRTTTGKGTVSALPFEVVRAAKLKAGAGGDGADVTDECVPTLEEVLEEARGRITVNIDTKFTRDLPQVMETVLRLGVEDQVLVKTDVDPEAERFEVLGSHWFGRIPHMPMFPVRKGKFAEDLRRIEALKAPMIEVKFTDIADLAEGRAEMERQNIRLWINSLDVSHCLDFNDTRALSNPEAVWGALAEAGTGAIQTDEVEAFTAWLKAGAGETGRAWTR | not soluble
5 | MGSDKIHHHHHHMHRLPPLRAIQVFDSVARNQSFSIAASQLAITQGAVSKQVKLLEEFYAEKLFIRCGTNIELTKKGTWLAYQLTPIFDQLNGICNFNSISRGKIRIATYPSLSLGYLTYEIEQFNSAHPNIDVEIILAINHPTMCDEIADLFITTEESIDGYHYQQLFQERLIPVISPKIINDTTIIKIKDLTGYTLLVTNGKENSDWQLWFNHHNLKPAIYQKMNMFSDALLSTRAAELGNGIALSCEVTAHRDIIDGRLCKVGLPSAPTGRRYFLCCKNRRRYEPNIKLLSDWINKKFIND | not soluble
6 | MGSDKIHHHHHHMHTQVNELFSELWQNYVSVTPSAAKIHALLGSSQQDDVQNDHIALRTFNIEKINLDKLAAHFLALGYKENGEYHFEAKKLYAKHYEHPDPTQPKVFISELLLEKCSPELQAIVHKLVDQIDVAAVTADNFLYSGRHWSIDQATYNTLVKESEYAAWVSVWGFRANHFTVSVNALKNFETLVSVNDTLKAAGFALNTSGGEIKGSQEVMLKQSSTLADEALVEFTDGSKMVPSCFYEFARRFPMADGTLYPGFVAASADKIFESTNAR | not soluble
7 | MGSDKIHHHHHHMHYEEGDDLVASSMTYSVKEMSMRNVRPVLLSLGLLSTVGIATAADTTTFNVKIAVTKACTITAASATDVDFGSVLSTSTANADANGSVTAQCTALTPYNIALSAGSNAGTANDVTTRRMKNTDALVTTNNFVAYQLYQDLGRSTVWGSTSGTNTLSRTATGINQIYPVYGRVTNPSAGNPATGTYQDTITATIIY | not soluble
8 | MGSDKIHHHHHHMIAQVEPFHAIAISRLAHDLEAAGQSVIHMEFGQPSTGAPAEAIALAHEVLDNEAMGYWESVPLKERIARSYAENHGVKVEREQVILTCGASPAFVMALSCLFRPGARIALARPGYVAYRNSLKAMYLEPVEMECGPAERFQVTAAAVDALDPVPDGLIVASPANPTGTIIEPGELAAIAEVCCRKGIRVISDEIYHGLSYGKAAASMLEYLPDAVIVNSFSKYFSMAGWRLGWLVVPPSLIDAARARMGSLFLTPPVLAQKAGLKAFDCRAELDGHVETYARNRAILLEALPQMGLGRIAPPDGAFYIYADASEFTDDSLALCEALLRDTGVATAPGLDFDPVNGKRFIRFSFAVSTPLIEEAVRRIGPWFAARRAVSPAQAPS | not soluble
9 | MGSDKIHHHHHHMIDFHVHTTFSDSTMTPAVAVRHAKMAGYRAVALTDHADHANMDLILRQTLPLARKYSLYAGIEVFAGVELTHVPPALIPEAVREARAMGAQLVLVHGETISDAVETGTNLAAIEGGVDILAHPGLVSDEDAAYAAERGVRFEITTRPGHALTNGHVAMAARRHGVRCVINNDAHHSRDFVNPDHRLAVALGAGLTTAEVTAAEAESRTLLGRLLREVR | not soluble
10 | MGSDKIHHHHHHMIDITDKQSCCGCSSCVQKCPRQCISLHEDTEGFLYPVVDKGDCIDCGLCEKVCPLLHWGEALVPMEVLAVKNKNQEERIHSSSGGVFIALSRQIIMDGGVVFGAVYDENWEVRITYSETLDGVRPMMGSKYLQARVETGFADAERFLKQGRYVLFSGTPCQIAGLHKYLRKDYPNLLSVDFLCHGVPSPGVWRRYLKETMSDLQSARRAAAGKNTVFPSLNVMPTIVGIEFRDKTLHGWKKYSFVVRGKSAFNADKNSVLLSDIHRENPFMRGFLSDIYLRPSCYECKCKNGVSHSDLTIADFWGIDRLMPDFDDDKGIGLALVNTVKGKQIFKRLSIDIRLSALSDVVALNGGFKEYRQPHPARLVFFRRFAVGETVESIVEDILRVPLWRRVMRNIKTFCKMIINRKQLTIIPLFIRRSKKRDK | not soluble
11 | MGSDKIHHHHHHMIDTFERTGPLMEASSYPAWAQQLINDCSPAKARVVEHELYQQMRDAKLSPQIMRQYLIGGWPVVEQFAVYMAKNLTKTRFGRHPGEDMARRWLMRNIRVELNHADYWVNWCAAHDVTLEDLHDQRVAPELHALSHWCWQTSSSDSLAVAMAATNYAIEGATGEWSAVVCSTGVYAEAFAEETRKKSMKWLKMHAQYDDAHPWEALEIICTLVGNKPSLQLQAELRQAVTKSYDYMYLFLERCIQLDKVKSPRGRVAALEM | not soluble
12 | MGSDKIHHHHHHMIDVEEILSKMNLNQKINYDRVMQKMVQVWEKNEQRPTILMHVCCAPCSTYTLEYLTKYADVTIYFANSNIHPKAEYHKRAYVTKKFVSDFNERTGNSVQYLEAPYEPNEYRKLVRGLEEEPEGGDRCQVCFDYRLDKTAQVAMDLGFDYFGSALTISPHKNSQTINSIGIDVQKIYTTHYLPSDFKKNQGYKRSVEMCEEYDIYRQCYCGCVYAAQAQNIDLVQVKKDATAFLLDKDVEKDYSHIKFTVTKLDI | not soluble
13 | MGSDKIHHHHHHMIEQELTYQDLRIPSSEIYEAMGYKDSIPDQMVIDETNTLLKRVIPLLRPRFAFFFMEGTLDIEKETLSVQSIHPPTVNPIQDTIPTRSPEQNTFSTQSKSTVFSVGKTIARQLRGSEAFVFFAATAGTEFEVFQHTLQQEEDMVKIYIADSLGSIIAEKTADCMEVALAEYIREKNWKHTNRYSPGYCGWHVSEQQKLFPLFPIAAPCGIRLTDSSLMVPIKSVSGVIGTGTNVRKLEYTCGLCTYENCYRKRKHR | not soluble
14 | MGSDKIHHHHHHMIFDGYEAYRAANFKPKVCILGSGPAGTTIARKLGAAGIPVVVLEAGSREFSDESQDFYRGTKVGDFYFDLDITRLRYMGGSSNHWAGWCRVLDKLDFEPKAWAPDTGWPIRRADIEPYLTEVRDILELPDFRPDVPISDDIRWVQLIKSPAVRFAEKFADELDKSGNIAVVLNTYATELAGDGKRVTGAKLWSNGQDAGAFSADYFIVCTGGLENSRLLLWSNQRSNGGVVPNATALGRYWMEHPTFEGGNAILADYGEFEVDAVNEAFFSPTLAAMERLRIMNFGIRLIETPYAGVKHVIADLACTAPDMAEWVAYQLSQNLRCAAQLYVAWEQAPLASNQIELSKTDVDHAGVPRIELHWKKSELERRTLVEGLKLFGTTLIEKDLGRVRLMDWIANGEDYPTDEETAGHHHMGGTRMGIDMTRSVVDANCKVHGMDNLYVGGSSVFCTSGQANPTTTITALACRLGEHLSKVVAV | not soluble
15 | MGSDKIHHHHHHMIGALYVVGPAGTGKSTFSGSLNEWLKRMEFDSAIINLDPGADYLPYEPDFDIREYISLDSIMSDYNLGPNGSQIVAADMIVSYTDKITEFLEDLDDYYVVVDTPGQIELFTFRTSSTEIVEKVSGQRSMMAYIADAPLATYPSGFIAQKMLYASVFSRFFRPMMFVLNKIDLVSDEDIQEVKKWESSPDLLNDAFMEEKGQMEKDYFVGILQAFKESNIMTKIYPVSSRDSFGFEDIYSQMALYFTGGEDNDTYREEG | not soluble
16 | MGSDKIHHHHHHMIGLRLDGYDPDLHHDAAVAFCIRARDDELFSPRHQHRKGQLILALHGAITCEVENAMWMVPPQYAVWLPGSLPHSNHVTAGAELCFLFIEPAAVVMPERCCTLKISPLCRELILSLARRTDPERAQMPTQRLIQVLFDELPQQPQEQLQLPVSGHPKIRQMVETMAQEPARWNTLGQWASVFAMSERNLARLVVKETGLSFRRWRHQLQLILALQALIAGRNVQQTAQMLGYDSTTAFITMFKKGLGQTPGQYLTGELLLPHN | not soluble
17 | MGSDKIHHHHHHMIHSETFAEIATLKERNLIALKEAREAGRHAVGTYCLFSPTELILAAGAIPVSLCGTSQKPIPAAEKVLPRNLCPLIKSSYGFAVTDTCPYFHFADFLLAETTCDGKKKMYELLGELKPIHVMQLPQIQDEAALDYWLMEIGRLKTRLEREFGVRITDKALTEAIRLMNEERRSLQALQDVCKAIPSPISGLDLLTVLHNRGFSVDRRAAIELVDRFAAELRQMAAAGISPFTESTPRILLTGVPVGVGSEKLIRIIEESGASVVCLESCGAYKKVEQVREGGDPLRAIAERYLKVPCSCMSPNTGRLELVERLTREFRVDGVVDLTWLGCHTYAVESSVLKKHLQQRTGLPFLQIETDYSESDTGQLKVRVEAFLEIVHRSMKRTA | not soluble
18 | MGSDKIHHHHHHMIIIIDEASAKLASFYYHDEIFKPQWKCAADMSSASDELHDEFQEKLQEKLPDELREKLYVVLPADESINDFQKTTIQESADNTAKANTGNLRIPKAPTDCIWIVSDRQQKQIADSLGIASVGEPQCGTRYAVESLAELDIEYLERVRRRYNHIPWDIGETDRCLIRELSLADLPALYELYDKPGMTDFVEPLYDYETELEYQKAYIENMYDFYEYGMWLVFSKETGKLIGRAGLEHNEMGYMIAPEFQNLGYATEVCRFIVDYARKNTDFEELYCRIDEKNVASVRLAKRLGFVRNGQIGNERNTGGLDRYVLSI | not soluble
19 | MGSDKIHHHHHHMIITLQDTETREISAKIDELHEERGEAALGRVLTLLISTNEAELEHDLEVANNASREHPCRVIAVAPSSRKISPEEEHPTFLDAEIRFGSDAGAGEIIVLRPRGGLVRHADTLVIPLLVPDAPVVAWWPNEAPANLSKDLLGSMASSRITDAMHSSNPRRTMDDLRRNRSAKDVDMSWTRLTVWRAMIASMLDQPPHLPVSNVRVTGQKDYLPLDLLAAWLRLRLNVPVMIEEDPNATAVTGVYLTRGDGVLSLERPSTDDGFAVISVPGQSPQTISVPARTLEECLSEELGRLYPDEIYSEVVSQGLDLVKPRQ | not soluble
